# Data as given in patent publication US20250177547A1, “PSMA-STEAP1 DUAL VARIABLE DOMAIN IMMUNOGLOBLIN (DVD-Ig) MOLECULES AND DRUG CONJUGATES” (AbbVie Inc., priority 2023, published 2025).
# Marks after values point to notes of the source that are not given here.
# B1: STEAP1-PSMA-(vcMMAE) Clone 15: PSMA-STEAP1 DVD-Ig clone 15 conjugated with monomethyl auristatin E (MMAE) (conjugate)
# heavy: EVQLVESGGGVVQPGRSLRLSCVASGFPFNNYWMTWIRQAPGKGLEWIASITITGGTTYYPGSVKGRFTISRDNSKSTLYLQMNSLRAEDTAVYYCTRERYSTEYYPYYWYFDFWGQGTMVTVSSGGGGSGGGGSEVQLVQSGAEVKKPGSSVKVSCKASGYTFTDYYMNWVKQAPGKGLEWIGLINPSNGGTNYNQKFRDKATLTVDKSTSTAYMELSSLRSEDTAVYYCARRAQATSGDYWGQGTTVTVSS
# light: DIQMTQSPSSLSASVGDRVTITCRTSQDIGNYLRWFQQKPGKSPKLMIYDAINLAAGVPSRFSGSGSGTDYTLTISSLQPEDVATYYCLQHNEYPYTFGQGTKLEIKGGSGGGGSGDIQMTQSPSSLSASVGDRVTITCHASQNINVWLSWYQQKPGKAPKLLIYKASNLHTGVPSRFSGSGSGTDFTFTISSLQPEDIATYYCQQGQTYPLTFGGGTKVEIK
# modifications: left off: a dimerising Fc or GST; large carriers
# Tests used:
# HEK293-PSMA cells = assay: In vitro cytotoxicity of MMAE conjugates (CellTiter-Glo), HEK293-PSMA; details: FIG. 3B/3E
# LNCaP.FGC xenograft = LNCaP.FGC xenograft study of MMAE conjugates; format: in vivo, mouse
# Experimental: (§1) Male NSG mice were obtained from Jackson Laboratories (Bar Harbor, ME) for both LNCaP.FGC and 22Rv1 xenograft studies. Mice were housed by treatment group at seven to eight mice per cage. Food and water were available ad libitum. Mice were acclimated to the animal facilities for a period of at least one week prior to commencement of experiments. Animals were tested in the light phase of a 12-hour light:12-hour dark schedule (lights on at 06:00 hours).
# (§2) To generate xenografts from LNCaP.FGC (ATCC) and from 22Rv1 (ATCC) cell lines, 5×10^6 viable LNCaP.FGC and 22Rv1 cells were inoculated subcutaneously into the right flank of male NSG mice, respectively. The injection volume was 0.1 mL and composed of a 1:1 mixture with Matrigel (BD, Franklin Lakes, NJ). Measurements of the length (L) and width (W) of the tumor were taken via electronic caliper and the tumor volume was calculated according to the following equation: V=L×W^2/2.
# Mice were assigned to treatment groups so that the mean tumor volumes within groups were approximately 175-250 mm^3. An anti-PSMA-MMAE ADC at Dose-1 1×, an anti-STEAP1-MMAE ADC at Dose-1 1×, and various of the PSMA/STEAP-1 DVD-Igs conjugated with MMAE described above at Dose-1 1.33×(Clone 13 was administered at Dose-1 0.87×due to limited compound availability) were administered within 24-48 hours of assignment to treatment groups based on tumor volumes. Tumor volumes were estimated two times weekly after dosing, with study groups body weights taken at the time of tumor measurements. Mice were euthanized (1) when tumor volume reached 2,000 mm^3, (2) when general efficacy parameters were confidently determined, or (3) when necessitated by other animal health issues.
# Parameters of Efficacy were determined as follows:
# TGI (tumor growth inhibition)=1−(mean tumor volume of treatment group/mean tumor volume of treatment control group)×100 based on measurements on day of vehicle endpoint. P values are derived from Student's T test comparison of treatment group vs. vehicle control group.
# TGD (tumor growth delay)=(T−C)/C×100, where T is the median time to endpoint of treatment group and C is the median time to endpoint of treatment control group. P values are derived from Kaplan Meier log-rank comparison of treatment group vs. vehicle control group.
# 22Rv1 xenograft = 22Rv1 xenograft study of MMAE conjugates; format: in vivo, mouse; details: FIG. 4A
# Experimental: as §1, §2
# Mice were assigned to treatment groups so that the mean tumor volumes within groups were approximately 175-250 mm^3. […] Mice were euthanized (1) when tumor volume reached 2,000 mm^3, (2) when general efficacy parameters were confidently determined, or (3) when necessitated by other animal health issues.
molecule,measurement,setting,value
B1,cytotoxic activity in HEK293-PSMA cells,HEK293-PSMA cells,weaker than PSMA-MMAE
same,activity in LNCaP.FGC xenograft model relative to monospecific ADCs,LNCaP.FGC xenograft; FIG. 4B,comparable or superior activity relative to monospecific ADCs
same,PR (%) partial response,"LNCaP.FGC xenograft; LNCaP.FGC xenograft, IP, QD x 1, >25 mm^3 but less than one-half of volume at onset",38* %
same,TR (%) total responders,"LNCaP.FGC xenograft; LNCaP.FGC xenograft, IP, QD x 1, sum of CR and PR",75*** %
same,CR (%) complete response,"LNCaP.FGC xenograft; LNCaP.FGC xenograft, IP, QD x 1, tumor burden ≤25 mm^3 for at least three consecutive measurements",38%
same,TGI (%),"LNCaP.FGC xenograft; LNCaP.FGC xenograft, male NSG mice, IP, QD x 1, day of comparison d 63 post inoculation",88*** %
same,TGD (%),"LNCaP.FGC xenograft; LNCaP.FGC xenograft, male NSG mice, IP, QD x 1, tumor volume endpoint 1000 mm^3",229*** %
same,activity in 22Rv1 xenograft model relative to monospecific ADCs,22Rv1 xenograft,comparable or superior activity relative to monospecific ADCs
